The values below come from patent publication US20250368729A1 (ATTRALUS, published 2025).

Assay [1] addresses T1, synthetic amyloid-like fibrils of recombinant amyloidogenic λ6 variable domain protein (rVλ6Wil).
T1 construct: domain: λ6 variable domain; Fibrillar aggregate of many copies; also called rVλ6Wil fibrils; rVλ6Wil synthetic fibrils
Put plainly: EuLISA, fibrils coated on plate (FIG. 13B).

Assay [2] addresses T1, synthetic amyloid-like fibrils of …. In words: pulldown, labelled antibody.
Assay [3] deals with T2, Aβ(1-40) amyloid-like fibrils (UniProt P05067 672-711).
T2 construct: domain: Aβ(1-40); Fibrillar aggregate; The numbers 1-40 count on Aβ, not on the precursor; also called Aβ(1-40) fibrils
Put plainly: pulldown, labelled antibody.

A further assay addresses T3, hIAPP fibril (UniProt P10997 34-70).
T3 construct: Fibrillar aggregate
T3 chain (looked up): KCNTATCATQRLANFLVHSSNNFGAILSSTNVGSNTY
In words: pulldown, labelled antibody.

In assay [4] the target is T4, Vκ4Len(1-22) monomer peptide (Homo sapiens (Human), UniProt P06312 21-42).
T4 construct: Free peptide as analyte in SPR; also called Vκ4(LEN(1-22) beads)
T4 peptide: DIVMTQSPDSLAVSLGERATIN
In words: pulldown, labelled antibody, peptide on beads.

Assay [5] concerns the target T1, synthetic amyloid-like fibrils of …. In words: EuLISA, substrate coated on plate. The protocol: (§1) To perform europium-linked immunosorbent assays (EuLISAs), suspensions of rVλ6Wil fibrils (sonicated) were prepared at 0.83 μM in phosphate buffered saline (PBS). The fibrils were coated onto the wells of a 96-well microplate by adding 50 μL to each well. The plates dried at 37° C. overnight. The wells of the microplate were blocked by addition of Superblock (Thermofisher) (SB) using 200 µL/well, and left at 37° C. for 1 hour. The primary (test) antibody (i.e., the humanized antibody) were added, prepared in SB+0.05% tween 20 (SBT) in a 1:2 dilution series starting at 1 μM using 100 µL/well. Plates were then incubated for 1 hour at 37° C. After a wash step (plates were washed three times using PBS+0.05% tween 20), secondary antibody was added as a 1:3000 dilution of biotinylated goat anti-human IgG (Sigma) in SBT at 100 µL/well. The plates were incubated for 1 hour at 37° C. After another wash step, 100 µL/well of a 1:1000 dilution of europium/streptavidin (Perkin Elmer) in SBT was added. The plates were incubated for 1 hour at 37° C. After a final wash step, 100 μL/well of europium enhancement solution (Perkin Elmer) was added. Time-resolved fluorescence emission was detected using a microplate reader (Wallac).
(§2) Table 8, below, provides the results of the ELISAs measuring the ability of mIgp5, hIgG1, c11-1F4, m11-1F4, VH6/VL3-p5, VH9/VL4-p5, and VH9/VL4-p5R to bind rVλ6Wil fibrils, Per125 wtATTR extract, KEN hATTR extract, SHI ALλ liver extract, and TAL ALκliver extract. For each combination of antibody and substrate, the Log-transformed EC₅₀, EC₅₀, and maximal level of binding in the assay is shown. Conditions labeled “na” were not tested.

The target in assay [6] is T5, TAL ALκ liver amyloid extract.
T5 construct: Tissue amyloid extract; also called ALκTAL extract
Put plainly: EuLISA, substrate coated on plate. The protocol:
as §1, §2

Assay [7] deals with T6, SHI ALλ liver amyloid extract.
T6 construct: Tissue amyloid extract; also called SHI AL liver extract; ALλ SHI extract
In words: EuLISA, substrate coated on plate. The protocol: as §1, §2

The target in assay [8] is T7, Per125 wtATTR amyloid extract (human, UniProt P02766 21-147). Put plainly: EuLISA, substrate coated on plate. Here is the method: as §1, §2
Assay [9] addresses T8, Per125 wtATTR amyloid extract (human, UniProt P02766 21-147). Put plainly: pulldown, labelled antibody.
The target of assay [10] is T8, Per125 wtATTR amyloid extract. In words: EuLISA, substrate coated on plate. Here is the method: as §1, §2
The source holds these as a separate data set.

Assay [11] has the same target. In words: EuLISA, extract coated on plate.
Assay [12] has as its target T4, Vκ4Len(1-22) monomer peptide. In words: SPR Biacore 8K, antibody immobilised, peptide as analyte. Here is the method: The affinity of humanized anti-amyloid antibodies binding to Vκ4Len(1-22) (“Len(1-22) monomer”) monomer peptide—the natural ligand for the m11-1F4 antibody—was measured using a Biacore 8K surface plasmon resonance (SPR) system. Parental antibody m11-1F4 binds to an epitope present at the N-terminal of denatured kappa 4 light chain proteins. The Len (1-22) monomer is a peptide comprising this epitope, as described in International Application No. PCT/US2017/015905. Binding affinities of anti-amyloid antibodies incorporating the humanized heavy chain region VH9 and the humanized light chain VL4 were tested, including versions of VH9 and VL4 with additional mutations (Table 5).
All SPR data were processed using the Biacore 8K Evaluation software version 1.1. Flow cell 1 and blank injections of buffer in each cycle were used as double reference for Response Units subtraction.
Table 7 provides the results of SPR assays measuring the binding of the humanized anti-amyloid antibodies to a Len(1-22) Monomer peptide. Specifically, the humanized VH9 and VL4 sequences were tested with or without additional amino acid substitutions, as indicated in the “Ligand” column of Table 7.

The target in assay [13] is T5, TAL ALκ liver amyloid extract. Put plainly: pulldown, labelled antibody.
The target in the next assay is T9, TYL ALλ amyloid extract.
T9 construct: Tissue amyloid extract; also called ALλ TYL extract
Put plainly: pulldown, labelled antibody.

For assay [14], the target named is T6, SHI ALλ liver amyloid extract. In words: pulldown, labelled antibody.
Assay [15] concerns the target T7, Per125 wtATTR amyloid extract. Put plainly: pulldown, labelled antibody. The source holds these as a separate data set.
The target of a further assay is T10, HIG ALκ1 amyloid extract.
T10 construct: Tissue amyloid extract; also called ALκ HIG extract
In words: pulldown, labelled antibody.

The target in assay [16] is Per253 wild type (wt) ATTR amyloid extract (human, UniProt P02766 21-147). In words: pulldown, labelled antibody.
The target of assay [17] is T1, synthetic amyloid-like fibrils of …. In words: pulldown, 125I-labelled antibody.

T2 sequence (P05067 672-711 limits assumed): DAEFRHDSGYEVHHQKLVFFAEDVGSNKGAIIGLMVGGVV

B1: VH6/VL3-p5 (humanized VH6/VL3 with peptide p5 fused to the N-terminal of the light chain) (antibody, V domains shown)
VH: QVQLQESGPGLVKPSETLSLTCTVSGFSLSSYGVSWVRQPPGKGLEWLGVIWGDGSTNYHPNLMSRLSISKDTSKNQFSLKLSSVTAADTATYYCVTLDYWGQGTSVTVSS
VL: DVVMTQSPLSLPVTLGQPASISCRSSQSLVHRNGNTYLHWYLQRPGQSPRLLIYKVSNRFSGVPDRFSGSGSGTDFTLKISRVEAEDVGLYFCFQTTYVPNTFGGGTKLEIK
As to B1, the EC50 in [1] amounted to 3 nM; in [5], 3.49 nM. Further, the “fold enhancement of binding over VH6/VL3 (based on EC50)” value in [1] is about 30 fold. The percent bound amounted to 22.5% in assay [2], 20.6% in assay [3], 4.82% in the assay with hIAPP fibril and 54.9% in [4]. In [5], the LogEC50 is 8.46 -log(M). Also, the “Max (maximal level of binding)” value in assay [5] stood at 65.3.

B2: murine antibody m11-1F4 (antibody, V domains shown)
VH: QVQLKESGPGLVAPSQSLSITCTVSGFSLSSYGVSWVRQPPGKGLEWLGVIWGDGSTNYHPNLMSRLSISKDISKSQVLFKLNSLQTDDTATYYCVTLDYWGQGTSVTVSS
VL: DVVMTQTPLSLPVSLGDQASISCRSSQSLVHRNGNTYLHWYLQKPGQSPKLLIYKVSNRFSGVPDRFSGSGSGTDFTLKISRVEAEDLGLYFCFQTTYVPNTFGGGTKLEIK
notes: Murine IgG1 kappa; also called murine 11-1F4; m1-1F4
For B2, the “Max (maximal level of binding)” value in assay [6] was about 35100; in assay [7], about 1510; in [8] it was 209; in assay [5] it was 184.

B3: VH9/VL4-p5 (humanized VH9/VL4 with peptide p5 fused to the N-terminal of the light chain) (antibody, V domains shown)
VH: QVQLQESGPGLVKPSETLSLTCTVSGFSLSSYGVSWIRQPPGKGLEWLGVIWGDGSTNYHPNLMSRVTISVDTSKSQVLFKLSSVTAADTAVYYCATLDYWGQGTSVTVSS
VL: DVVMTQSPLSLPVTLGQPASISCRSSQSLVHRNGNTYLHWFQQRPGQSPRLLIYKVSNRFSGVPDRFSGSGSGTDFTLKISRVEAEDVGVYFCFQTTYVPNTFGGGTKLEIK
Take B3: the percent bound in assay [9] is 1.33%; in assay [2] it was 24.7%; in assay [4], 54.4%. Moreover, the results for the EC50 in assay [10] and in assay [5] were 24.5 nM and 4.05 nM, respectively. For the same molecule, the figures for the LogEC50 in [10] and in assay [5] were 7.61 -log(M) and 8.39 -log(M), respectively. The entries for the “Max (maximal level of binding)” value in [10] and in [5] were 58.1 and 71, respectively.

B4: VH6/VL3-p5R (humanized VH6/VL3 with peptide p5R fused to the N-terminal of the light chain) (antibody, V domains shown)
VH: QVQLQESGPGLVKPSETLSLTCTVSGFSLSSYGVSWVRQPPGKGLEWLGVIWGDGSTNYHPNLMSRLSISKDTSKNQFSLKLSSVTAADTATYYCVTLDYWGQGTSVTVSS
VL: DVVMTQSPLSLPVTLGQPASISCRSSQSLVHRNGNTYLHWYLQRPGQSPRLLIYKVSNRFSGVPDRFSGSGSGTDFTLKISRVEAEDVGLYFCFQTTYVPNTFGGGTKLEIK
Turning to B4, the EC50 in assay [11] worked out at 85 nM; in [1], 3 nM. Further, in [1], the “fold enhancement of binding over VH6/VL3 (based on EC50)” value was about 30 fold.

B5: VH9/VL4-p5R (humanized VH9/VL4 with peptide p5R fused to the N-terminal of the light chain) (antibody, V domains shown)
VH: QVQLQESGPGLVKPSETLSLTCTVSGFSLSSYGVSWIRQPPGKGLEWLGVIWGDGSTNYHPNLMSRVTISVDTSKSQVLFKLSSVTAADTAVYYCATLDYWGQGTSVTVSS
VL: DVVMTQSPLSLPVTLGQPASISCRSSQSLVHRNGNTYLHWFQQRPGQSPRLLIYKVSNRFSGVPDRFSGSGSGTDFTLKISRVEAEDVGVYFCFQTTYVPNTFGGGTKLEIK
Take B5: the percent bound in assay [9] was determined as 1.12%; in [2], 22.6%; in assay [4], 50.2%. Moreover, the concentration for a half-maximal effect (EC50) in assay [10] is 14 nM; in [5], 3.91 nM. The LogEC50 is 7.86 -log(M) in [10] and 8.41 -log(M) in [5]. The “Max (maximal level of binding)” value came to 55.7 in [10] and 82.7 in assay [5].

B6: chimeric (c) 11-1F4 (antibody, V domains shown)
VH: QVQLKESGPGLVAPSQSLSITCTVSGFSLSSYGVSWVRQPPGKGLEWLGVIWGDGSTNYHPNLMSRLSISKDISKSQVLFKLNSLQTDDTATYYCVTLDYWGQGTSVTVSS
VL: DVVMTQTPLSLPVSLGDQASISCRSSQSLVHRNGNTYLHWYLQKPGQSPKLLIYKVSNRFSGVPDRFSGSGSGTDFTLKISRVEAEDLGLYFCFQTTYVPNTFGGGTKLEIK
notes: also called ch11-1F4; ci1-1F4
In the case of B6, the “Max (maximal level of binding)” value is about 17800 in [6], 51.3 in [7], 71.1 in assay [8] and 63.9 in [5].

B7: VH9 + VL4-G34V (antibody, V domains shown)
VH: QVQLQESGPGLVKPSETLSLTCTVSGFSLSSYGVSWIRQPPGKGLEWLGVIWGDGSTNYHPNLMSRVTISVDTSKSQVLFKLSSVTAADTAVYYCATLDYWGQGTSVTVSS
VL: DVVMTQSPLSLPVTLGQPASISCRSSQSLVHRNVNTYLHWFQQRPGQSPRLLIYKVSNRFSGVPDRFSGSGSGTDFTLKISRVEAEDVGVYFCFQTTYVPNTFGGGTKLEIK
Turning to B7, in assay [12], binding was put at a Kd of 35 nM, the koff worked out at 0.00146 s⁻¹ and the on-rate (kon) was determined as 41800 M⁻¹ s⁻¹.

B8: murine Ig-peptide fusion Igp5 (murine 11-1F4 with peptide p5 fused to the N-terminus of the light chain) (antibody)
heavy: QVQLKESGPGLVAPSQSLSITCTVSGFSLSSYGVSWVRQPPGKGLEWLGVIWGDGSTNYHPNLMSRLSISKDISKSQVLFKLNSLQTDDTATYYCVTLDYWGQGTSVTVSS
light: AQAGQAGQAQGGGYSKAQKAQAKQAKQAQKAQKAQAKQAKQVTPTVDVVMTQTPLSLPVSLGDQASISCRSSQSLVHRNGNTYLHWYLQKPGQSPKLLIYKVSNRFSGVPDRFSGSGSGTDFTLKISRVEAEDLGLYFCFQTTYVPNTFGGGTKLEIK
notes: Antibody-peptide fusion; unlabelled in the EuLISA; also called mIgp5; mIgG-p5; not shown: murine 11-1F4 (IgG1) CH1 followed by murine IgG2a CH2-CH3 (pFUSE-mIgG2A-Fc); murine 11-1F4 kappa constant region (CL)
As to B8, the percent bound in assay [13] is 37%; with TYL ALλ amyloid extract, 21%; in assay [14] it was 34%; in assay [15], 31%; in assay [2], 71%; with HIG ALκ1 amyloid extract, 10%. In assay [16], this molecule registered a percent bound of 17%. Further, the “fold higher binding than murine 11-1F4” value in assay [17] stood at 21 fold. Besides, the EC50 is 3.37 nM in [6], 2.94 nM in assay [7], 6.24 nM in assay [8] and 2.88 nM in assay [5]. Moreover, the LogEC50 is 8.47 -log(M) in assay [6], 8.53 -log(M) in [7], 8.21 -log(M) in [8] and 8.54 -log(M) in [5]. Also, the “Max (maximal level of binding)” value in assay [6] stood at 24.6; in [7], 24; in assay [8], 31.7; in assay [5], 58.5.

What is called EC50 is the concentration at which the effect is half-maximal. One may read the Kd as a measure of binding affinity in units of concentration. A high value points to lower affinity. Usually koff stands for the rate constant with which the complex falls apart. One may read the kon as a measure of how fast the partners come together.
